Biological target: T1, TMR-Asp-Glu-Ser-Glu-Glu-Glu-Asp-Lys(Nε-Flsn)-COOH reporter peptide (casein kinase II substrate peptide), unphosphorylated (not fully specified)
T1 chain: DESEEEDK

B1: Human casein kinase II (CKII) (protein)
chain: MSGPVPSRARVYTDVNTHRPREYWDYESHVVEWGNQDDYQLVRKLGRGKYSEVFEAINITNNEKVVVKILKPVKKKKIKREIKILENLRGGPNIITLADIVKDPVSRTPALVFEHVNNTDFKQLYQTLTDYDIRFYMYEILKALDYCHSMGIMHRDVKPHNVMIDHEHRKLRLIDWGLAEFYHPGQEYNVRVASRYFKGPELLVDYQMYDYSLDMWSLGCMLASMIFRKEPFFHGHDNYDQLVRIAKVLGTEDLYDYIDKYNIELDPRFNDILGRHSRKRWERFVHSENQHLVSPEALDFLDKLLRYDHQSRLTAREAMEHPYFYTVVKDQARMGSSSMPGGSTPVSSANMMSGISSVPTPSPLGPLAGSPVIAAANPLGMPVPAAAGAQQ
phosphorylation of the peptide by CKII, HPLC analysis: Phosphorylation of the peptide by CKII was confirmed by incubation of the peptide with kinase
